This passage reports amyloid nucleation score results from the supplement of paper PMC12042874.

± gives the uncertainty stated by the source.

The series can be described thus: amyloid nucleation score (Sup35N fusion, yeast selection) (log enrichment); library NNK2; higher = more nucleation; inactive = no reads after selection. The method, boiled down:
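The nucleation score is the DiMSum log enrichment of output over input reads, centred on the mode score of non-aggregating sequences. Only sequences with 100 or more input reads were scored, using Illumina sequencing of input and output plasmid inserts. Psi-negative yeast expressing Sup35N fused to peptides of 20 random codons were induced 24 hours with 100 μM copper sulfate and grown 7 days at 30°C on medium lacking adenine and uracil.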
For YIIDRKEHFLSKCY, the amyloid nucleation score is -0.738 ± 0.55.
Then YILMHGSHM, with 3.73 ± 0.071.
The figure for YINLIWFSYMFGESFARGQR is 4 ± 0.13; for YIPCDKANRSFENC it is 1.19 ± 0.35.
Take YIPMIKL: the amyloid nucleation score was -0.794 ± 0.43.
YISGWYCVNTVSRNNSYRES gave an amyloid nucleation score of -1.72 ± 0.49.
Then YKLFWKWGFSGITDDSTLMR, with “inactive”; and YKPRGHEVRSVG, with -0.752 ± 0.48.
Then YKRRRWRVENRNGVSFSHTD, with 0.806 ± 0.3.
The figure for YKWIIESRMGALPKQLCRRA is -0.465 ± 0.42; for YKWWDLCLNFPCGRLKAQPR it is 1.28 ± 0.25; for YLARASYS it is 0.258 ± 0.18.
In turn, YLASFVFGIVNTYSAVALS showed an amyloid nucleation score of 0.552 ± 0.66.
The figure for YLCLTFCNIDNLQVMFKSAY is 8.209 ± 0.034.
Then YLCSSRITL, with 1.31 ± 0.47; and YLIRVHICGCKYVERLFHSV, with “inactive”.
Then YLKKVQWYRQAYFGA, with -0.694 ± 0.28.
In turn, YLKPLAFITSILHAMTRPWH returned an amyloid nucleation score of -1.28 ± 0.75.
The figure for YLKRPRPRRLGSP is 0.405 ± 0.33.
Then YLLHNSLKFRVHHSL, with -0.68 ± 0.39.
The figure for YLLIPWKSKDPLHIGLLF is -0.381 ± 1.1.
YLLSMVRKDPVSRVSLKKGW had an amyloid nucleation score of 0.566 ± 0.66.
Turning to YLLYCVS, the amyloid nucleation score entry was “inactive”.
Regarding YLMVISEQIGDMCTISS, the amyloid nucleation score was -1.36 ± 0.76.
Take YLNLYLYCVNSSNDSYV: the amyloid nucleation score stood at 6.513 ± 0.031.
As to YLSLVKSPLSSLNSFWTWM, the amyloid nucleation score was -0.348 ± 0.23.
Then YLSYSTLLPKSETEWMYCVL, with -0.631 ± 1; and YLTISIAGVVLNLFVIACIV, with 0.757 ± 0.4.
Then YLTLTYPLLCLALNNLSVVL, with 2.38 ± 0.15; and YLTNLNNCADKSNCW, with “inactive”.
The figure for YLYILVRNGGASSVC is -0.635 ± 0.4.
For YMCKVSPLRILSF, the amyloid nucleation score was 2.66 ± 0.056.
Then YMCQRTETMSVSTWGKILCV, with “inactive”; and YMCRYGFMDNFCAVHVSFVE, with 5.645 ± 0.055; and YMHCNNCSNVHVWAKKKCRE, with 8.432 ± 0.043.
On to YMKTN, for which the amyloid nucleation score was -0.38 ± 0.32.
With YMLMMALFQRC, the amyloid nucleation score is 2.75 ± 0.15.
The substance YMRSWEVLNMCGVSWLCIFA displayed an amyloid nucleation score of 7.419 ± 0.064.
The substance YMSLNKTAVTCVCHM yielded an amyloid nucleation score of -0.425 ± 0.5.
Take YMSYNYGTVLEFLELPDSHR: the amyloid nucleation score turned out to be 1.56 ± 0.11.
The figure for YMTPVLDSHSFADVSAIRCV is 0.212 ± 0.39.
The figure for YMVMA is -0.67 ± 1.1; for YMYFVFIRSSKSVMIKDVHC it is “inactive”; for YNCLACARVKWKSVCGRMSC it is 0.388 ± 0.32.
Then YNCSI, with 4.29 ± 0.11; and YNGLEVAYLF, with 5.43 ± 0.062; and YNGRAIEHCQSMVSFRAVSR, with -0.041 ± 0.6.
As to YNILVK, the amyloid nucleation score was -0.622 ± 0.43.
YNMCYNG: the amyloid nucleation score was -0.781 ± 1.1.
YNQVYES gave an amyloid nucleation score of 2.84 ± 0.054.
Then YNSNNRAILSLLHDQRNLYG, with 0.643 ± 0.16.
YNSVKLLEGPFLCSSLTGS: the amyloid nucleation score was 0.444 ± 0.6.
The figure for YNTPIIPAWVFSFHQWPEAF is -1.6 ± 1.1; for YPEPKQWVSVSALHLVRGLR it is 0.995 ± 0.2.
The figure for YPISLWLFYGGSGAQTLVVR is 2.51 ± 0.1; for YPMNSVPDI it is -0.858 ± 0.48; for YPPSVLFVSALHQVGTMSGG it is 0.003 ± 0.3.
Then YPPWVSGVMIVMGHLRRCSA, with 1.93 ± 0.43; and YPYDWSLLVLELVRQILSMG, with 0.704 ± 0.47; and YQDWGSSTLLIVIKSWAGET, with -1.02 ± 0.33.
Turning to YQINCLGSYDNLQCMIGGHV, the amyloid nucleation score is 5.965 ± 0.037.
YQMADVPLNRMGHYPVYEGW showed an amyloid nucleation score of -0.845 ± 0.76.
The figure for YQMVTCWAYDSQDIGSWCAG is -0.012 ± 1.1; for YQNIFLRTAALRAGSAD it is 0.765 ± 0.24.
Then YQNVVCRDIQIGFWNLADSI, with 5.824 ± 0.056; and YQSDK, with “inactive”; and YRATYVLRVAFSWVVSCPGD, with -0.377 ± 0.41.
Take YRCYTSGFLFFHGSCLNCKS: the amyloid nucleation score worked out at 0.227 ± 1.1.
Then YRDRDLC, with -0.339 ± 0.34; and YRFKIMCLVSPHFV, with 0.736 ± 0.6.
The figure for YRFRVLCQVCNHGLRYKFFT is 0.372 ± 0.37.
As to YRFVLVRNKVSYH, the amyloid nucleation score was -0.827 ± 0.33.
The figure for YRKSWVWVLLESASAMLIGL is 0.682 ± 0.22.
On to YRLGGWEVNWRLDFYHRRGM, for which the amyloid nucleation score worked out at 1.21 ± 0.32.
In the case of YRLIDVYWS, the amyloid nucleation score was -0.632 ± 1.1.
The figure for YRPAWMDWF is 1.78 ± 0.16.
In turn, YRPCGRTSPCGSGYKVSNEF returned an amyloid nucleation score of 1.57 ± 0.15.
The substance YRRLCWPWFRKLFEVYRDN registered an amyloid nucleation score of -0.554 ± 0.63.
The figure for YRSAYFMFTVDHFGLELFFL is 2.45 ± 0.12; for YRSSSWVNWIQWH it is 3.47 ± 0.095; for YRVYLQRHSGA it is 3.78 ± 0.069.
For the substance YRYLLVLSWRSMFAHRLLPS, the amyloid nucleation score was 1.5 ± 0.5.
Regarding YSASQTWCKQPIDCFIRGQN, the amyloid nucleation score was -0.605 ± 0.41.
Then YSCVDAYG, with “inactive”; and YSEMRDSQAVVAYESRVVKP, with 0.798 ± 0.46.
The figure for YSEVTVRSSAAL is 0.863 ± 0.29.
YSFCKCVIVGIWFRLGWCQA: the amyloid nucleation score result was “inactive”.
The figure for YSGKNIAGLNFSIRCCSSIE is 8.793 ± 0.036; for YSGLSNLLGKMKRGSSLWVD it is “inactive”.
Consider YSIFHFYLKGFGSTW, for which the amyloid nucleation score entry was “inactive”.
Then YSLMCQFHSSPISFFLCWLP, with 8.157 ± 0.071; and YSMGAYTVSMGACA, with -1.05 ± 1.1.
The figure for YSMPRSN is -0.548 ± 0.45; for YSNSDTAMSLGARLAYGVL it is 5.379 ± 0.05; for YSSAGGHRLMGMGRIRYKTG it is 0.026 ± 0.56.
The figure for YSYEHTRWTSLGGWHLR is 4.66 ± 0.069; for YSYWLSILRNVEL it is 4.18 ± 0.079; for YTAFLFICTRALLMPDMKFL it is “inactive”.
Substance YTCCLL displayed an amyloid nucleation score of 5.914 ± 0.035.
In turn, YTLRSNTNASMRRHLMQVPR showed an amyloid nucleation score of -0.531 ± 1.1.
The figure for YTMWGWLAAMVREMETLGSK is -0.284 ± 0.61; for YTNSQYSPLPQQSNLKVSNI it is -0.716 ± 0.56.
YTNTKKVLLVSVNVPRFLPV displayed an amyloid nucleation score of 1.99 ± 0.17.
Regarding YTRGCSFHIRVSSLCGQYNI, the amyloid nucleation score came out at 1.65 ± 0.18.
